Test results from the supplement of paper PMC10567573.

B1: TRIM15 (parent)
chain: LLARLRELEQQIWKERDEYITKVS
B2: TRIM39 (parent)
chain: YPCVLATEGFTSGRHYWEVEVGDK

Variants of: B1
Test: protein stability index of a GFP-peptide fusion (GPS, HEK-293T) (PSI 1-6); higher = more stable
Details: c terminus: a fixed tail appended
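Note: lentivirally expressed fusions sorted by FACS into six bins by GFP to DsRed ratio, PSI derived from sequencing read proportions per bin multiplied by bin number.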

Protein stability index of substitutions, site by site:
L1: N 3.22; T 1.63; G 1.55; Y 2.35; K 2.05; S 2.12; H 2.19; C 1.84; R 1.87; F 1.55; P 2.37; E 2.2; Q 2.83; M 1.03; A 1.79; D 2.31
L2: A 2.12; I 1.65; M 1.49; E 1.38; C 1.6; H 2.13; K 1.25; D 2.55; G 1.9; F 1.67

Variants of: B2
Test: as above
Details: c terminus: a fixed tail appended

Protein stability index of substitutions, site by site:
G13: V 2.15; N 1.57; F 1.56; L 1.95; Q 1.71; E 1.87; C 1.91; I 1.73; M 1.59; R 2.09; P 1.74; H 1.46; D 2.24; A 1.48; K 2.39; T 1.72
G9: T 2.03; M 1.66; I 1.05; E 2.2; N 1.99; C 1.57; K 1.8; H 1.6; Q 2.04; D 2.01; A 2.49; P 2.21; F 2.97
E18: P 1.92; H 1.43; K 1.73; N 2.38; Q 1.05; S 2.72; D 1.45; W 2.2; F 1.81
F10: K 1.4; E 2.77; R 2.41; L 1.86; M 2.69; S 1.9; V 1.66; Y 2.26; H 1.86; W 1.85; P 2.12; Q 1.63
T11: E 2.39; N 2.67; I 2.59; V 1.44; A 1.97; F 2.55; G 2.09; Q 1.72; D 2.17; P 2.19; M 1.73; W 2.66; K 2.19; S 1.58; Y 3.04
C3: T 1.81; S 2; Q 1.9; E 3.41; F 1.86; M 1.91; V 2.01; A 2.05; K 1.48; Y 1.98; G 1.98; L 2.09
V4: S 1.61; N 1.85; Y 2.41; T 1.68; A 1.73; Q 1.46; M 2.06; W 1.74; I 1.85; D 2.54; L 2.13; C 2.03; R 1.78; F 2.18; E 2.88
W17: S 3.62; P 3.54; D 3.88; I 2.95; T 3.6; V 2.44; H 3.07; K 2.76; G 3.44; N 3.77; Q 3.68
G22: K 2.5; W 2.37; E 1.88; L 1.81; M 1.58; Q 2.38; N 1.91; R 1.75; P 1.85; A 2.05; S 2.19; I 1.67; T 1.76; F 1.53
E8: Q 1.87; R 1.58; L 1.89; T 2.01; Y 1.35; I 2.16; S 1.25; A 1.33; K 2.25; M 2.25; N 1.85; F 2.06; D 1.93
T7: D 1.74; H 1.59; K 2.46; G 1.77; P 1.75; Y 1.09; V 1.79; I 1.63; L 1.98
E20: M 1.59; L 2.32; K 2.4; W 2.16; Q 1.51; V 2.31; T 2; P 1.57; D 1.98; H 1.58
V19: N 2.54; Q 2.86; H 2.85; Y 2.64; L 2.35; P 2.13; C 2.18; R 2.4; E 2.59; M 2.63; I 2.19; F 2.21; W 2.21; S 1.93; D 3.18; K 2.98
H15: C 2.2; M 1.32; F 1.9; R 1.97; G 1.98; K 2.06; W 2.1; E 3.05; L 1.56; I 1.22; S 2.16; P 2.16; A 2.61; Q 2.6; T 2.17; N 2.76; Y 2.58
Y16: A 2.38; V 2.08; S 1.75; L 1.76; I 2.33; G 2.98; H 2.04; T 1.35; P 1.78; K 2.38; D 3.52; R 2.02; W 4.12
R14: F 1.81; K 1.69; T 2.27; H 1.71; E 3.04; V 2.06; N 1.91; Q 2.36; W 1.66; G 2.48; Y 1.95; D 2.66; A 2.37
D23: N 3; E 1.85; T 2.32; Y 1.91; S 1.76; G 1.82; L 2.51; C 1.71; P 1.43; R 1.45; I 1.76; A 1.79; M 1.57; K 1.02; H 2.98; V 1.65; Q 2.44
P2: R 1.86; E 2.67; C 1.94; M 1.76; A 1.84; D 2.92; K 1.99; N 2.21; Q 2.05; L 2.35; F 1.78; T 2.21; I 1.1; Y 1.66
S12: D 2.79; A 2.15; F 1.34; Q 1.66; P 1.81; R 2.79; V 1.6; Y 1.68; K 1.95; M 3.54; I 2.33
L5: G 1.87; N 2.58; R 1.54; M 1.46; C 1.22; Y 2.3; H 1.36; A 1.87; Q 2.31; V 1.74; F 1.57; S 2.26
K24: T 2.36; C 2.21; R 1.75; G 1.92; S 1.87; L 2.05; V 1.96; N 2.1; P 2.16; E 2.66; H 1.57
V21: T 1.6; R 2.05; S 1.88; E 1.77; K 2.15; F 1.95; P 1.43; A 2.51; H 1.86
A6: E 1.71; H 1.99; S 1.44; M 1.4; G 2.38; N 2.47; R 1.36; L 1.45; V 1.89; D 2.12; W 2.16; I 2.09
Y1: R 3.52; N 3.76; G 3.34; P 4.24; Q 3.71; A 3.11; W 2.74; I 2.98; S 3.49; V 2.8; F 1.59; L 2.96; E 3.65; D 3.45
